Measured values from paper PMC4139268, “Thermal, Chemical and pH Induced Unfolding of Turmeric Root Lectin: Modes of Denaturation” (PLoS ONE, 2014).

Target: the molecule itself
Assay: SEC; Biogel P-100 column; CLA incubated 5 h at room temperature at pH 7, 5 or 4 (10 mM Na-phosphate or Na-acetate, 150 mM NaCl); mass from a standard curve run at pH 7

B1: Curcuma longa rhizome lectin (natural protein)
chain: KNILLSGETLETGKFLTEGEFTFLMQSDCNLVLYDLNRPIWSSGTIHKGSGCILKMQNDGNLVIYNVTNNAIWASNTGGQQGNYILILQRDRNVVIYSQPIFNTDTAVSKLNSSNLGETGNGGNIAQPENKIAIGASNGHNANILPSGETLPTGKLTLPSEVATETGK
modifications: glycosylated (glycoprotein with about 5.2% covalently bound sugar); sites not stated
  stoichiometry N: 2
